In paper PMC4668074, “NDK Interacts with FtsZ and Converts GDP to GTP to Trigger FtsZ Polymerisation - A Novel Role for NDK” (PLoS ONE, 2015):

Tests used:
[1] = biological target: T1, 6xHis-MtFtsZ (Mycobacterium tuberculosis FtsZ) (Mycobacterium tuberculosis, UniProt P9WN95 1-379); assay: pull-down; conditions: both partners purified
T1 construct: also called MtZ
T1 sequence: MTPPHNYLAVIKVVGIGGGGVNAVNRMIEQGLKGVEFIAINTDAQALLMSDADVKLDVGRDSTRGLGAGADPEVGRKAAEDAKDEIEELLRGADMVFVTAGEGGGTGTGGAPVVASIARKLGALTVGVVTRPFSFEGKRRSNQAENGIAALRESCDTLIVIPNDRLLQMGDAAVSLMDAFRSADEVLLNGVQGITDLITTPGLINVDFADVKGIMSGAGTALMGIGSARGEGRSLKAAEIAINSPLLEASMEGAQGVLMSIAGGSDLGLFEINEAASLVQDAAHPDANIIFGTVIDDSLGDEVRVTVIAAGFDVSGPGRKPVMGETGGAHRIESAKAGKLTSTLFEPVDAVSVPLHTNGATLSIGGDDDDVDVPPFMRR

[2] = biological target: T2, 6xHis-EcFtsZ (FtsZ of E. coli) (E. coli, UniProt P0A9A6 1-383); assay: pull-down; conditions: both partners purified
T2 sequence (looked up): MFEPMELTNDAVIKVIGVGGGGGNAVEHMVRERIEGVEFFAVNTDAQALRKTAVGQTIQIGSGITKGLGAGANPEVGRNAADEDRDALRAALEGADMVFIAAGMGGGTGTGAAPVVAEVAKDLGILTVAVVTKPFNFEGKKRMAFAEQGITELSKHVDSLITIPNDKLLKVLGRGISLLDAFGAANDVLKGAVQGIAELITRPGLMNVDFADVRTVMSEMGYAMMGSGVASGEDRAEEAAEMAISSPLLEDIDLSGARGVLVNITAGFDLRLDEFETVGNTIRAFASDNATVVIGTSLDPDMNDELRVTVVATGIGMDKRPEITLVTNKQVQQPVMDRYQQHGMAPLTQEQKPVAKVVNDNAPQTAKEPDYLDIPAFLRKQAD

B1: GST-MtNDK (Mycobacterium tuberculosis nucleoside diphosphate kinase) (enzyme)
chain: MTERTLVLIKPDGIERQLIGEIISRIERKGLTIAALQLRTVSAELASQHYAEHEGKPFFGSLLEFITSGPVVAAIVEGTRAIAAVRQLAGGTDPVQAAAPGTIRGDFALETQFNLVHGSDSAESAQREIALWFPGA
notes: also called GST-NDK; MtNDK-Wt
[1]
  binding result: binds
[2]
  binding result: binds
